Measurements: patent publication US20040191271A1 (Pfizer, published 2004)

Molecular target: the molecule itself
Test: size exclusion chromatography (Superdex 200), self-association of identical subunits

B1: Streptococcus pneumoniae undecaprenyl pyrophosphate synthase (enzyme)
chain: AVEVEVPTQVPAHIGIIMDGNGRWAKKRMQPRVFGHKAGMEALQTVTKAANKLGVKVITVYAFSTENWTRPDQEVKFIMNLPVEFYDNYVPELHANNVKIQMIGETDRLPKQTFEALTKAEELTKNNTGLILNFALNYGGRAEITQALKLISQDVLDAKINPGDITEELIGNYLFTQHLPKDLRDPDLIIRTSGELRLSNFLPWQGAYSELYFTDTLWPDFDEAALQEAILAYNRRHRRFGGV
notes: Homodimer of two identical subunits; Thrombin removed the tag before size exclusion and crystallization; also called UPS; UppS
B1: binds.
